Data from patent US20220290147A1, “SYSTEM FOR REGULATING GENE EXPRESSION” (Baylor College of Medicine, priority 2019, published 2022).
Residue numbers refer to the chain shown, from its start.

B1: Y196CAA-4MAZ: SEQ ID NO: 6; Y-shape polyA switch construct with 4MAZ (nucleic acid)
DNA: TCAGATCGCCTGGAGACGCCATCCACGCTGTTTTGACCTCCATAGAAGACACCGGGACCGATCCAGCCTCCCCTCGAAGCTGATCCTGAGAACTTCAGGGTGAGTCTATGGGACCCTTGATGTTTTCTTTCCCCTTCTTTTCTATGGTTAAGTTCATGTCATAGGAAGGGGAGAAGTAACAGGGTACACATATTGACCAAATCAGGGTAATTTTGCATTTGTAATTTTAAAAAATGCTTTCTTCTTTTAATATACTTTTTTGTTTATCTTATTTCTAATACTTTCCCTAATCTCTTTCTTTCAGGGCAATAATGATACAATGTATCATGCCTCTTTGCACCATTCTAAAGAATAACAGTGATAATTTCTGGGTTAAGGCAATAGCAATATTTCTGCATATAAATATTTCTGCATATAAATTGTAACTGATGTAAGAGGTTTCATATTGCTAATAGCAGCTACAATCCAGCTACCATTCTGCTTTTATTTTATGGTTGGGATAAGGCTGGATTATTCTGAGTCCAAGCTAGGCCCTTTTGCTAATCATGTTCATACCTCTTATCTTCCTCCCACAGCTCCTGGGCAACGTGCTGGTCTGTGTGCTGGCCCATCACTTTGGCAAAGAATTGGCTAGCCACACACACAAATCTGGGGAGGTGAAGAATACGACCACCTGCGTTTTATACTTCCACGAGATCTGGGGAGGTGAAGAATACGACCACCTAATAAGATTACCGAAAGGCAATCTTATTAAAACATACCAGATCTTGTGAGGGTGTTTGTGGCAAAACATACCAGATCGAATTCGATCTGGGGAGGTGAAGAATACGACCACCTGCTACAAGTACCTAATAAAGTATAAAGTGCAAAACATACCAGATCTGTGTGTTGGTTTTTTGTGTGTTAACGGGGGAGGGGGAGGAAAGGGGGAGGGGGAGGAAAGGGGGAGGGGGAGGAAAGGGGGAGGGGGAGCGGCCGCCAACAACAACAACAACAACAACAACAACAACAACAACAACATAACAGTGTTCACTAGCAACCTCAAACAGACACCATG
B2: Y209: SEQ ID NO: 8; polyA switch construct (nucleic acid)
DNA: TCAGATCGCCTGGAGACGCCATCCACGCTGTTTTGACCTCCATAGAAGACACCGGGACCGATCCAGCCTCCCCTCGAAGCTGATCCTGAGAACTTCAGGGTGAGTCTATGGGACCCTTGATGTTTTCTTTCCCCTTCTTTTCTATGGTTAAGTTCATGTCATAGGAAGGGGAGAAGTAACAGGGTACACATATTGACCAAATCAGGGTAATTTTGCATTTGTAATTTTAAAAAATGCTTTCTTCTTTTAATATACTTTTTTGTTTATCTTATTTCTAATACTTTCCCTAATCTCTTTCTTTCAGGGCAATAATGATACAATGTATCATGCCTCTTTGCACCATTCTAAAGAATAACAGTGATAATTTCTGGGTTAAGGCAATAGCAATATTTCTGCATATAAATATTTCTGCATATAAATTGTAACTGATGTAAGAGGTTTCATATTGCTAATAGCAGCTACAATCCAGCTACCATTCTGCTTTTATTTTATGGTTGGGATAAGGCTGGATTATTCTGAGTCCAAGCTAGGCCCTTTTGCTAATCATGTTCATACCTCTTATCTTCCTCCCACAGCTCCTGGGCAACGTGCTGGTCTGTGTGCTGGCCCATCACTTTGGCAAAGAATTGGCTAGCCACACACACAAATCTGGGGAGGTGAAGAATACGACCACCTGCGTTTTATACTTCCGCGAGATCTGGGGAGGTGAAGAATACGACCACCTAATAAGATTACCGAAAGGCAATCTTATTAAAACATACCAGATCTTGCGAGGGTGTTTGTGGCAAAACATACCAGATCGAATTCGATCTGGGGAGGTGAAGAATACGACCACCTGCTACAAGTACCTAAATAAAGTATAAAGTGCAAAACATACCAGATCTGTGTGTTGGTTTTTTGTGTGTTAACGGGGGAGGGGGAGGAAAGGGGGAGGGGGAGGAAAGGGGGAGGGGGAGGAAAGGGGGAGGGGGAGCGGCCGCCAACAACAACAACAACAACAACAACAACAACAACAACAACATAACAGTGTTCACTAGCAACCTCAAACAGACACCATG
B3: Y211: SEQ ID NO: 9; polyA switch construct (nucleic acid)
DNA: B2 DNA with G691A, C771T
B4: Y208: SEQ ID NO: 7; polyA switch construct (nucleic acid)
DNA: TGGAGACGCCATCCACGCTGTTTTGACCTCCATAGAAGACACCGGGACCGATCCAGCCTCCCCTCGAAGCTGATCCTGAGAACTTCAGGGTGAGTCTATGGGACCCTTGATGTTTTCTTTCCCCTTCTTTTCTATGGTTAAGTTCATGTCATAGGAAGGGGAGAAGTAACAGGGTACACATATTGACCAAATCAGGGTAATTTTGCATTTGTAATTTTAAAAAATGCTTTCTTCTTTTAATATACTTTTTTGTTTATCTTATTTCTAATACTTTCCCTAATCTCTTTCTTTCAGGGCAATAATGATACAATGTATCATGCCTCTTTGCACCATTCTAAAGAATAACAGTGATAATTTCTGGGTTAAGGCAATAGCAATATTTCTGCATATAAATATTTCTGCATATAAATTGTAACTGATGTAAGAGGTTTCATATTGCTAATAGCAGCTACAATCCAGCTACCATTCTGCTTTTATTTTATGGTTGGGATAAGGCTGGATTATTCTGAGTCCAAGCTAGGCCCTTTTGCTAATCATGTTCATACCTCTTATCTTCCTCCCACAGCTCCTGGGCAACGTGCTGGTCTGTGTGCTGGCCCATCACTTTGGCAAAGAATTGGCTAGCCACACACACAAATCTGGGGAGGTGAAGAATACGACCACCTGCGTTTTATACTTCCGCGAGATCTGGGGAGGTGAAGAATACGACCACCTAATAAGATTACCGAAAGGCAATCTTATTAAAACATACCAGATCTTGCGAGGGTGTTTGTGGCAAAACATACCAGATCGAATTCGATCTGGGGAGGTGAAGAATACGACCACCTGCTACAAGTACCTAATAAAGTATAAAGTGCAAAACATACCAGATCTGTGTGTTGGTTTTTTGTGTGTTAACGGGGGAGGGGGAGGAAAGGGGGAGGGGGAGGAAAGGGGGAGGGGGAGGAAAGGGGGAGGGGGAGCGGCCGCCAACAACAACAACAACAACAACAACAACAACAACAACAACATAACAGTGTTCACTAGCAACCTCAAACAGACACCATG

What was measured:
alternative splicing = assay: RT-PCR of tetracycline-induced alternative splicing; assay type: cell-based; settings: presence of Tc, compared to Y196CAA-2MAZ
Procedure: Cells transfected with the respective constructs were grown 18 hours at 37° C. in medium in the absence or presence of tetracycline. Total RNA was isolated according to the protocol supplied with RiboPure™ RNA Purification Kit (Ambion, Austin, Tex.). For RT-PCR, RT was performed using SuperScript III (invitrogen, Carlsbad, Calif.) according to manufacturer's protocol and PCR was performed using the primers targeting the beginning of the transcript and reporter gene.

293T cells = assay: Luciferase assay: tetracycline-induced transgene expression (induction in fold) from polyA aptamer constructs; assay type: cell-based, human
Procedure: Cells were seeded in 96-well plates at a density of 25000-30000 cells/well. After 24 hours of incubation, each well was transfected with 50 ng of DNA vectors and were incubated with culture medium containing none or various concentration of tetracycline for an additional 18 hours. Luciferase activity was measured in relative light units (RLU) with a Polarstar Omega plate reader (BMG Labtech, USA). To make 36 mL of assay buffer, 144 μL 1M DTT, 108 μL M ATP, 252 μL 0.1M luciferin and 360 μl 0.05M CoA were added to 35 mL of basic buffer (25 mM Tricine, 0.5 mM EDTA-Na2, 0.54 mM Na-triphosphate, 16.3 mM MgSO4.7H2O, and 0.8% Triton X-100). After the cell medium was removed, 40 μL of assay buffer was added to each well, and luciferase activity was read twice with the Polarstar Omega plate reader. Induction in fold is calculated as the ratio of transgene expression in the presence vs absence of tetracycline.

Molecule | Tc-induced alternative splicing (alternative splicing) | effect on induction of inserting CAA repeats in the 5′UTR of the named construct (293T cells)
B1 | far more pronounced | 
B2 |  | higher induction
B3 |  | higher induction
B4 |  | higher induction
